In the RNAGym collection of RNA variant scans (doi:10.7554/elife.80360) one finds self-cleavage data, which are given here for 64 variants.

B1: HDV Ribozyme (parent)
chain: GGCCGGCAUGGUCCCAGCCUCCUCGCUGGCGCCGGCUGGGCAACAUUCCGAGGGGACCGUCCCCUCGGUAAUGGCGAAUGGGACCCA

The variants in the data set derive from B1. As to the kind of experiment: self-cleavage, relative activity (ratio to wild type); higher = more cleavage; co-transcriptional.
As to GGCCGGCAUGGUCCCAGCCUCCUCGCUGGCGCCGCCUGGGCAACAUUCCGAGGAGACCGUCCCCUCGGUAAUGGCGAAUGGGACCCA, the self-cleavage was found to be 0.151.

For the variant GGCCGGCAUGGUCCCAGCCUCCUCGCUGGCGCCGCCUGGGCAACAUUCCGAGGUGACCGUCCCCUCGGUAAUGGCGAAUGGGACCCA, the self-cleavage amounted to 0.326.

With GGCCGGCAUGGUCCCAGCCUCCUCGCUGGCGCCGCCUGGGCAACAUUCCGAGGGGACCGUCCUCUCGGUAAUGGCGAAUGGGACCCA, the self-cleavage was 0.492.

In the case of GGCCGGCAUGGUCCCAGCCUCCUCGCUGGCGCCGCCUGGGCAACAUUCCGAGGGGACCGUCCACUCGGUAAUGGCGAAUGGGACCCA, the self-cleavage came to 0.259.

Consider GGCCGGCAUGGUCCCAGCCUCCUCGCUGGCGCCGCCUGGGCAACAUUCCGAGGGGACCGUCCCCUCGGUAAUGGCGAAUGAGACCCA, for which the self-cleavage is 0.0332.

With GGCCGGCAUGGUCCCAGCCUCCUCGCUGGCGCCGCCUGGGCAACAUUCCGAGGGGACCGUCCCCUCGGUAAUGGCGAAUGCGACCCA, the self-cleavage came to 0.19.

On to GGCCGGCAUGGUCCCAGCCUCCUCGCUGGCGCCGCCUGGGCAACAUUCCGAGGGGACCGUCCCCUCCGUAAUGGCGAAUGGGACCCA, for which the self-cleavage came to 0.0519.

In the case of GGCCGGCAUGGUCCCAGCCUCCUCGCUGGCGCCGCCUGGGCAACAUUCCGAGGGGACCGUCCCCUCUGUAAUGGCGAAUGGGACCCA, the self-cleavage was 0.133.

In the case of GGCCGGCAUGGUCCCAGCCUCCUCGCUGGCGCCGCCUGGGCAACAUUCCGAGGGGACAGUCCCCUCGGUAAUGGCGAAUGGGACCCA, the self-cleavage was determined as 0.175.

For GGCCGGCAUGGUCCCAGCCUCCUCGCUGGCGCCGCCUGGGCAACAUUCCGAGGGGAUCGUCCCCUCGGUAAUGGCGAAUGGGACCCA, the self-cleavage is 0.185.

As to GGCCGGCAUGGUCCCAGCCUCCUCGCUGGCGCCGCCUGGGCAACAUUCCGUGGGGACCGUCCCCUCGGUAAUGGCGAAUGGGACCCA, the self-cleavage turned out to be 0.396.

As for GGCCGGCAUGGUCCCAGCCUCCUCGCUGGCGCCGACUGGGCAACAUUCCGAGGGGACCGUCCCCUCGGUAAAGGCGAAUGGGACCCA, the self-cleavage worked out at 0.208.

In the case of GGCCGGCAUGGUCCCAGCCUCCUCGCUGGCGCCGCCUGGGCAACAUUCCGAGGGGACCGUCCCUUCGGUAAUGGCGAAUGGGACCCA, the self-cleavage amounted to 0.348.

For the variant GGCCGGCAUGGUCCCAGCCUCCUCGCUGGCGCCGCCUGGGCAACAUUCCGAGGGGACCGUCCCCUCGGUACUGGCGAAUGGGACCCA, the self-cleavage turned out to be 0.

With GGCCGGCAUGGUCCCAGCCUCCUCGCUGGCGCCGCCUGGGCAACAUUCCUAGGGGACCGUCCCCUCGGUAAUGGCGAAUGGGACCCA, the self-cleavage stood at 0.272.

In the case of GGCCGGCAUGGUCCCAGCCUCCUCGCUGGCGCCGCCUGGGCAACAUUCCAAGGGGACCGUCCCCUCGGUAAUGGCGAAUGGGACCCA, the self-cleavage stood at 0.0528.

In the case of GGCCGGCAUGGUCCCAGCCUCCUCGCUGGCGCCGCCUGGGCAACAUUGCGAGGGGACCGUCCCCUCGGUAAUGGCGAAUGGGACCCA, the self-cleavage amounted to 0.485.

In the case of GGCCGGCAUGGUCCCAGCCUCCUCGCUGGCGCCGCCUGGGCAACAUUUCGAGGGGACCGUCCCCUCGGUAAUGGCGAAUGGGACCCA, the self-cleavage was 0.271.

On to GGCCGGCAUGGUCCCAGCCUCCUCGCUGGCGCCGCCUGGGCAAUAUUCCGAGGGGACCGUCCCCUCGGUAAUGGCGAAUGGGACCCA, for which the self-cleavage stood at 0.0536.

In the case of GGCCGGCAUGGUCCCAGCCUCCUCGCUGGCGCCGCCUGGGCAAAAUUCCGAGGGGACCGUCCCCUCGGUAAUGGCGAAUGGGACCCA, the self-cleavage was determined as 0.0573.

As to GGCCGGCAUGGUCCCAGCCUCCUCGCUGGCGCCGCCUCGGCAACAUUCCGAGGGGACCGUCCCCUCGGUAAUGGCGAAUGGGACCCA, the self-cleavage came out at 0.128.

On to GGCCGGCAUGGUCCCAGCCUCCUCGCUGGCGCCGCCUAGGCAACAUUCCGAGGGGACCGUCCCCUCGGUAAUGGCGAAUGGGACCCA, for which the self-cleavage is 0.155.

Regarding GGCCGGCAUGGUCCCAGCCUCCUCGCUGGCGCCGCCUGGGCAACAUUCCGAGGGGACCGUCCCCUCGGUAAUGGUGAAUGGGACCCA, the self-cleavage was found to be 0.0692.

For GGCCGGCAUGGUCCCAGCCUCCUCGCUGGCGCCGCCUGGGCAACAUUCCGAGGGGACCGUCCCCUCGGUAAUGGCGAAUGGGAUCCA, the self-cleavage came out at 0.256.

As to GGCCGGCAUGGUCCCAGCCUCCUCGCUGGCGCCGCCUGGGCAACAUUCCGAGGGGACCGUCCCCUCGGUAAUGACGAAUGGGACCCA, the self-cleavage amounted to 0.0779.

On to GGCCGGCAUGGUCCCAGCCUCCUCGCUGGCGCCGCCUGGGCAACAUUCCGAGGGGACCGUCACCUCGGUAAUGGCGAAUGGGACCCA, for which the self-cleavage came out at 0.277.

For the variant GGCCGGCAUGGUCCCAGCCUCCUCGCUGGCGCCGCCUGGGCAGCAUUCCGAGGGGACCGUCCCCUCGGUAAUGGCGAAUGGGACCCA, the self-cleavage was determined as 0.111.

With GGCCGGCAUGGUCCCAGCCUCCUCGCUGGCGCCGCCUGGGCACCAUUCCGAGGGGACCGUCCCCUCGGUAAUGGCGAAUGGGACCCA, the self-cleavage stood at 0.17.

With GGCCGGCAUGGUCCCAGCCUCCUCGCUGGCGCCGCCUGGGCUACAUUCCGAGGGGACCGUCCCCUCGGUAAUGGCGAAUGGGACCCA, the self-cleavage worked out at 0.0339.

Take GGCCGGCAUGGUCCCAGCCUCCUCGCUGGCGCCGCCUGGGCAACAUUCCGAGGGGACCGUCCCCUCGGUAAUGGCAAAUGGGACCCA: the self-cleavage amounted to 0.514.

As for GGCCGGCAUGGUCCCAGCCUCCUCGCUGGCGCCGCCUGGGCAACAUUCCGAGGGGACCGUCCCCUCGGUAAUGGCCAAUGGGACCCA, the self-cleavage was 0.305.

For GGCCGGCAUGGUCCCAGCCUCCUCGCUGGCGCCGCCUGGGCAACAUUCCGAGGGGACCGUCCCCUCGGUAAUGGCGAAUGGGACCCG, the self-cleavage was 0.205.

Consider GGCCGGCAUGGUCCCAGCCUCCUCGCUGGCGCCGCCUGGGCAACAUUCCGAGGGGACCGUCCCCUCGGUAAUGGCGAAUGGGACCCC, for which the self-cleavage was 0.0866.

In the case of GGCCGGCAUGGUCCCAGCCUCCUCGCUGGCGCCGCCUGGGCAACAUUCCGAGUGGACCGUCCCCUCGGUAAUGGCGAAUGGGACCCA, the self-cleavage came out at 0.204.

Regarding GGCCGGCAUGGUCCCAGCCUCCUCGCUGGCGCCGCCUGGGCAACAUUCCGAGGGGACCGUCCCCUCGGUAAUGGCGAAUGGGACCCA, the self-cleavage came out at 0.254.

As for GGCCGGCAUGGUCCCAGCCUCCUCGCUGGCGCCGCCUGGGCAACAUUCCGAGGGGACCGUCCCCUAGGUAAUGGCGAAUGGGACCCA, the self-cleavage came out at 0.253.

Regarding GGCCGGCAUGGUCCCAGCCUCCUCGCUGGCGCCGCCUGGGCAACAUUCCGAGGGGACCGUCCCCUUGGUAAUGGCGAAUGGGACCCA, the self-cleavage was 0.229.

Turning to GGCCGGCAUGGUCCCAGCCUCCUCGCUGGCGCCGCCUGGGCAACAUUCCGAGGGGACCGUCCCCUCGGUAAUGGCGAAUGGGUCCCA, the self-cleavage came out at 0.0898.

With GGCCGGCAUGGUCCCAGCCUCCUCGCUGGCGCCGCCUGGGCAACAUUCCGAGGGGACCGUCCCCUCGCUAAUGGCGAAUGGGACCCA, the self-cleavage stood at 0.356.

As for GGCCGGCAUGGUCCCAGCCUCCUCGCUGGCGCCGCCUGGGCAACAUUCCGAGGGGACCGUCCCCUCGGUAAUGGCGGAUGGGACCCA, the self-cleavage came to 0.18.

With GGCCGGCAUGGUCCCAGCCUCCUCGCUGGCGCCGCCUGGGCAACAUUCCGAGGGGACCGUCCCCUCGGUAAUGGCGUAUGGGACCCA, the self-cleavage turned out to be 0.181.

As for GGCCGGCAUGGUCCCAGCCUCCUCGCUGGCGCCGCCUGGGCAACAUUCCGAGGGGACCGUCCCCUCGGUAAUGGCGCAUGGGACCCA, the self-cleavage worked out at 0.0898.

As for GGCCGGCAUGGUCCCAGCCUCCUCGCUGGCGCCGCCUGGGCAACAUUCCGAGGGGACCGUCCCCUCGGUAAUGGCGAGUGGGACCCA, the self-cleavage was 0.262.

As for GGCCGGCAUGGUCCCAGCCUCCUCGCUGGCGCCGCCUGGGCAACAUUCCGAGGGGACCGUCCCCUCGGUAAUGGCGAUUGGGACCCA, the self-cleavage was found to be 0.0475.

On to GGCCGGCAUGGUCCCAGCCUCCUCGCUGGCGCCGCCUGGGUAACAUUCCGAGGGGACCGUCCCCUCGGUAAUGGCGAAUGGGACCCA, for which the self-cleavage amounted to 0.0978.

Regarding GGCCGGCAUGGUCCCAGCCUCCUCGCUGGCGCCGCCUGAGCAACAUUCCGAGGGGACCGUCCCCUCGGUAAUGGCGAAUGGGACCCA, the self-cleavage came out at 0.178.

Turning to GGCCGGCAUGGUCCCAGCCUCCUCGCUGGCGCCGACUGGGCAACAUUCCGAGGGGACCGUCCCCUCGGUAAUGGCGAAAGGGACCCA, the self-cleavage worked out at 0.47.

Regarding GGCCGGCAUGGUCCCAGCCUCCUCGCUGGCGCCGCCUGGGCAACAUUCCGAGGGGACCGUCCCCUCGGUAAUGGCGAAUGGCACCCA, the self-cleavage is 0.0519.

With GGCCGGCAUGGUCCCAGCCUCCUCGCUGGCGCCGCCUGGGCAACAUUCCGAGGGGACCGUCCCCUCGGUCAUGGCGAAUGGGACCCA, the self-cleavage was determined as 0.158.

On to GGCCGGCAUGGUCCCAGCCUCCUCGCUGGCGCCGCCUGGGCAACAUUCCGAGGGGACCGUCCCCUCGGUUAUGGCGAAUGGGACCCA, for which the self-cleavage worked out at 0.138.

For the variant GGCCGGCAUGGUCCCAGCCUCCUCGCUGGCGCCGCCUGGGCAACAUUCCGAGGGGACCGUCCCCUCGGUAAUGGCGAAUGGGACUCA, the self-cleavage was 0.308.

Regarding GGCCGGCAUGGUCCCAGCCUCCUCGCUGGCGCCGCUUGGGCAACAUUCCGAGGGGACCGUCCCCUCGGUAAUGGCGAAUGGGACCCA, the self-cleavage was 0.108.

Take GGCCGGCAUGGUCCCAGCCUCCUCGCUGGCGCCGCAUGGGCAACAUUCCGAGGGGACCGUCCCCUCGGUAAUGGCGAAUGGGACCCA: the self-cleavage was 0.119.

As to GGCCGGCAUGGUCCCAGCCUCCUCGCUGGCGCCGCCUGGGCAACAUUCCGAGGGGACCGUCCCCUCGGUAAUGGCGAAUGGGACCUA, the self-cleavage came out at 0.415.

With GGCCGGCAUGGUCCCAGCCUCCUCGCUGGCGCCGCCUGGCCAACAUUCCGAGGGGACCGUCCCCUCGGUAAUGGCGAAUGGGACCCA, the self-cleavage is 0.185.

As for GGCCGGCAUGGUCCCAGCCUCCUCGCUGGCGCCGCCUGGGCAACAUUCCGAGGGGACCCUCCCCUCGGUAAUGGCGAAUGGGACCCA, the self-cleavage was 0.424.

As to GGCCGGCAUGGUCCCAGCCUCCUCGCUGGCGCCGCCUGGGCAACAUUCCGAGGGGACCUUCCCCUCGGUAAUGGCGAAUGGGACCCA, the self-cleavage came to 0.204.

Consider GGCCGGCAUGGUCCCAGCCUCCUCGCUGGCGCCGCCUGGGCAACAUUCCGAGGGAACCGUCCCCUCGGUAAUGGCGAAUGGGACCCA, for which the self-cleavage turned out to be 0.342.

As for GGCCGGCAUGGUCCCAGCCUCCUCGCUGGCGCCGCCUGGGCAACAUUCCGAGGGUACCGUCCCCUCGGUAAUGGCGAAUGGGACCCA, the self-cleavage is 0.0615.

As for GGCCGGCAUGGUCCCAGCCUCCUCGCUGGCGCCGCCUGGGCAACAUUCCGAGGGCACCGUCCCCUCGGUAAUGGCGAAUGGGACCCA, the self-cleavage is 0.366.

On to GGCCGGCAUGGUCCCAGCCUCCUCGCUGGCGCCGCCUGGGCAACAUUCCGAGGGGACCGUCCCCUCGGUAAUUGCGAAUGGGACCCA, for which the self-cleavage amounted to 0.181.

Consider GGCCGGCAUGGUCCCAGCCUCCUCGCUGGCGCCGCCUGGGCAACAUUCCGAGGGGACCGUCCCCUCGGUAAUAGCGAAUGGGACCCA, for which the self-cleavage stood at 0.0723.

Take GGCCGGCAUGGUCCCAGCCUCCUCGCUGGCGCCGCCUGGGCAACAUUCGGAGGGGACCGUCCCCUCGGUAAUGGCGAAUGGGACCCA: the self-cleavage came to 0.0449.

For GGCCGGCAUGGUCCCAGCCUCCUCGCUGGCGCCGCCUGGGCAACAUUCUGAGGGGACCGUCCCCUCGGUAAUGGCGAAUGGGACCCA, the self-cleavage is 0.203.
